{"source": "paper PMC9980337", "origin": "cited, not measured here", "target": "IL-18 (Homo sapiens) (UniProt Q14116)", "sequence (Q14116 37-193)": "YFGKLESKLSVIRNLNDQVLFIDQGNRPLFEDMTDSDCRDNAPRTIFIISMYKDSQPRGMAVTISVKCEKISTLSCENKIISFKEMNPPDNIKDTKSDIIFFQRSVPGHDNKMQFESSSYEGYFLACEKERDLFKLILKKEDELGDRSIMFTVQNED", "note": "Several values for one entry are separate records, joined by “and”; a condition that tells them apart may be missing. Equal values may be shown once."}
{"substance": "IL-18BP (from UniProt O95998)", "values": [{"measurement": "Kd", "value": "0.4 nM and 0.05 nM"}]}
